Assay results published in patent US20250186541A1, “DLL3 TARGETING PEPTIDES AND CONSTRUCTS THEREOF” (MARIANA ONCOLOGY INC., priority 2023, published 2025).
Numbered stars: 1 amine (or outer) side, 2 acyl side, 3 side chain; on linkers, the order of the positions; unused ones are H or OH. Bridge positions count the residues as written; N and C are the ends. Square brackets hold non-standard residues; d marks the D form. Peptide text beside a SMILES is read from it. * marks the point of attachment. Ala(piperidin-4-yl) = O=C([C@H](CC1CCN([*:3])CC1)N[*:1])[*:2]; DOTA = O=C(O)CN1CCN(CC(=O)O)CCN(CC(=O)*)CCN(CC(=O)O)CC1; Phe(4-CH2NH2) = NCc1ccc(C[C@H](N)C(=O)O)cc1; 1Nal = N[C@@H](Cc1cccc2ccccc12)C(=O)O; 2Nal = N[C@@H](Cc1ccc2ccccc2c1)C(=O)O; tBuAla = CC(C)(C)C[C@H](N)C(=O)O; dAllylGly = C=CC[C@@H](N)C(=O)O; AllylGly = C=CC[C@H](N)C(=O)O; αMeP = C[C@@]1(C(=O)O)CCCN1

T1: Biotinylated human DLL3 (human, UniProt Q9NYJ7 27-492, biotinylated (site not stated))
T1 construct: also called Delta-like ligand 3; Delta Like Canonical Notch Ligand 3
T1 sequence (looked up): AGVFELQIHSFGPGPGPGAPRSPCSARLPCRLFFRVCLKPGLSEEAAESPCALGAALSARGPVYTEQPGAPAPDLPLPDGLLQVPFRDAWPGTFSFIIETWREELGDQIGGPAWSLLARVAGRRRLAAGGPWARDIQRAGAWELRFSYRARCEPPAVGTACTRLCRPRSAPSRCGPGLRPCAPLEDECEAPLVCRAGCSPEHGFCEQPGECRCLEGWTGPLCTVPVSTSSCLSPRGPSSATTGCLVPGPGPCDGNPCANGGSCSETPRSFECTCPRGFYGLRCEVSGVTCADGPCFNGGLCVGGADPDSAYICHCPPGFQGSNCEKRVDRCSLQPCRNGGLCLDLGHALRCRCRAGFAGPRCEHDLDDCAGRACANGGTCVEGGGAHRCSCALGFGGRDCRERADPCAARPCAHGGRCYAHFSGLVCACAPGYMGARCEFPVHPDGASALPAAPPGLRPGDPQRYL

T2: human DLL3 (Homo sapiens, UniProt Q9NYJ7)
T2 construct: biotin (biotinylated)
T2 sequence (Q9NYJ7 27-618): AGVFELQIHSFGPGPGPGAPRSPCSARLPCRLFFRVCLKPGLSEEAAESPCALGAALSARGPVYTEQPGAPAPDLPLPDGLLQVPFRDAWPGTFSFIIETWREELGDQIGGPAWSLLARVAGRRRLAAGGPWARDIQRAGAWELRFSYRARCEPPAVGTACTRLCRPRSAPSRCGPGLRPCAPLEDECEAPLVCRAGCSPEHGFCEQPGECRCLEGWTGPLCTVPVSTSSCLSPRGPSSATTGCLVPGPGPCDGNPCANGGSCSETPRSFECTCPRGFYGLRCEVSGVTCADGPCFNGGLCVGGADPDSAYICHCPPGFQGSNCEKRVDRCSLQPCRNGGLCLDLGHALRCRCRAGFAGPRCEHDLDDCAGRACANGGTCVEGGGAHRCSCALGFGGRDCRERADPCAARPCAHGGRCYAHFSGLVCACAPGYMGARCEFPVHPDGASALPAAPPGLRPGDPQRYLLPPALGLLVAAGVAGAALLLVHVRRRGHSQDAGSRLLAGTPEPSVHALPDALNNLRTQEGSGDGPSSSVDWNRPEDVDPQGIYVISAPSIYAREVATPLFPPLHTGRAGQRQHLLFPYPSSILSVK


Biological target: T1, Biotinylated human DLL3
Assay: SPR, biotin-hDLL3 on SA chip
Settings: not given

Molecule	Kd [nM]	binding result
Ac-[dA]SDCWLQWNCPFD-NH2 (disulfide 4-10) [Cpd #8]	8.5	
Ac-MSDCW[dA]QWNCPFD-NH2 (disulfide 4-10; SMILES CSCC[C@H](NC(C)=O)C(=O)N[C@@H](CO)C(=O)N[C@@H](CC(=O)O)C(=O)N[C@H]1CSSC[C@@H](C(=O)N2CCC[C@H]2C(=O)N[C@@H](Cc2ccccc2)C(=O)N[C@@H](CC(=O)O)C(N)=O)NC(=O)[C@H](CC(N)=O)NC(=O)[C@H](Cc2c[nH]c3ccccc23)NC(=O)[C@H](CCC(N)=O)NC(=O)[C@@H](C)NC(=O)[C@H](Cc2c[nH]c3ccccc23)NC1=O) [Cpd #12]	63	
Ac-MSACWLQWNCPFD-NH2 (disulfide 4-10; SMILES CSCC[C@H](NC(C)=O)C(=O)N[C@@H](CO)C(=O)N[C@@H](C)C(=O)N[C@H]1CSSC[C@@H](C(=O)N2CCC[C@H]2C(=O)N[C@@H](Cc2ccccc2)C(=O)N[C@@H](CC(=O)O)C(N)=O)NC(=O)[C@H](CC(N)=O)NC(=O)[C@H](Cc2c[nH]c3ccccc23)NC(=O)[C@H](CCC(N)=O)NC(=O)[C@H](CC(C)C)NC(=O)[C@H](Cc2c[nH]c3ccccc23)NC1=O) [Cpd #21]	80	
Ac-MSDCALQWNCPFD-NH2 (disulfide 4-10; SMILES CSCC[C@H](NC(C)=O)C(=O)N[C@@H](CO)C(=O)N[C@@H](CC(=O)O)C(=O)N[C@H]1CSSC[C@@H](C(=O)N2CCC[C@H]2C(=O)N[C@@H](Cc2ccccc2)C(=O)N[C@@H](CC(=O)O)C(N)=O)NC(=O)[C@H](CC(N)=O)NC(=O)[C@H](Cc2c[nH]c3ccccc23)NC(=O)[C@H](CCC(N)=O)NC(=O)[C@H](CC(C)C)NC(=O)[C@H](C)NC1=O) [Cpd #22]		no binding
Ac-M[dA]DCWLQWNCPFD-NH2 (disulfide 4-10; SMILES CSCC[C@H](NC(C)=O)C(=O)N[C@H](C)C(=O)N[C@@H](CC(=O)O)C(=O)N[C@H]1CSSC[C@@H](C(=O)N2CCC[C@H]2C(=O)N[C@@H](Cc2ccccc2)C(=O)N[C@@H](CC(=O)O)C(N)=O)NC(=O)[C@H](CC(N)=O)NC(=O)[C@H](Cc2c[nH]c3ccccc23)NC(=O)[C@H](CCC(N)=O)NC(=O)[C@H](CC(C)C)NC(=O)[C@H](Cc2c[nH]c3ccccc23)NC1=O) [Cpd #9]	35.1	

Second part, the molecule after the results:

Kd [nM]	binding result	Molecule
4.9		Ac-MSDCWLAWNCPFD-NH2 (disulfide 4-10; SMILES CSCC[C@H](NC(C)=O)C(=O)N[C@@H](CO)C(=O)N[C@@H](CC(=O)O)C(=O)N[C@H]1CSSC[C@@H](C(=O)N2CCC[C@H]2C(=O)N[C@@H](Cc2ccccc2)C(=O)N[C@@H](CC(=O)O)C(N)=O)NC(=O)[C@H](CC(N)=O)NC(=O)[C@H](Cc2c[nH]c3ccccc23)NC(=O)[C@H](C)NC(=O)[C@H](CC(C)C)NC(=O)[C@H](Cc2c[nH]c3ccccc23)NC1=O) [Cpd #24]
116		Ac-MS[dA]CWLQWNCPFD-NH2 (disulfide 4-10; SMILES CSCC[C@H](NC(C)=O)C(=O)N[C@@H](CO)C(=O)N[C@H](C)C(=O)N[C@H]1CSSC[C@@H](C(=O)N2CCC[C@H]2C(=O)N[C@@H](Cc2ccccc2)C(=O)N[C@@H](CC(=O)O)C(N)=O)NC(=O)[C@H](CC(N)=O)NC(=O)[C@H](Cc2c[nH]c3ccccc23)NC(=O)[C@H](CCC(N)=O)NC(=O)[C@H](CC(C)C)NC(=O)[C@H](Cc2c[nH]c3ccccc23)NC1=O) [Cpd #10]
	no binding	Ac-MSDCWLQWNCAFD-NH2 (disulfide 4-10; SMILES CSCC[C@H](NC(C)=O)C(=O)N[C@@H](CO)C(=O)N[C@@H](CC(=O)O)C(=O)N[C@H]1CSSC[C@@H](C(=O)N[C@@H](C)C(=O)N[C@@H](Cc2ccccc2)C(=O)N[C@@H](CC(=O)O)C(N)=O)NC(=O)[C@H](CC(N)=O)NC(=O)[C@H](Cc2c[nH]c3ccccc23)NC(=O)[C@H](CCC(N)=O)NC(=O)[C@H](CC(C)C)NC(=O)[C@H](Cc2c[nH]c3ccccc23)NC1=O) [Cpd #27]
21		Ac-ASDCWLQWNCPFD-NH2 (disulfide 4-10; SMILES CC(=O)N[C@@H](C)C(=O)N[C@@H](CO)C(=O)N[C@@H](CC(=O)O)C(=O)N[C@H]1CSSC[C@@H](C(=O)N2CCC[C@H]2C(=O)N[C@@H](Cc2ccccc2)C(=O)N[C@@H](CC(=O)O)C(N)=O)NC(=O)[C@H](CC(N)=O)NC(=O)[C@H](Cc2c[nH]c3ccccc23)NC(=O)[C@H](CCC(N)=O)NC(=O)[C@H](CC(C)C)NC(=O)[C@H](Cc2c[nH]c3ccccc23)NC1=O) [Cpd #19]

Biological target: T2, human DLL3
Assay: Affinity determination by Surface Plasmon Resonance (SPR), Biacore, 1:1 binding model
Settings: biotinylated human DLL3 on streptavidin chip, 25° C.; NB = nonbinding
How it was run: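 SPR with biotinylated human DLL3 captured on a streptavidin chip, with a reference surface subtracted. Samples were injected at several concentrations at 100 μL/min in phosphate buffer with 137 mM NaCl, 2.7 mM KCl, 0.05% P20 and 2% DMSO. Kinetic and affinity constants came from a 1:1 binding fit.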

Molecule	Kd [nM]	SPR KD (nM)
CC(=O)N[C@@H](CO)C(=O)N[C@@](C)(CC(=O)O)C(=O)N[C@H]1CCCC[C@@H](C(=O)N2CCC[C@@]2(C)C(=O)N[C@@H](Cc2ccccc2)C(=O)N[C@@H](CC(=O)O)C(N)=O)NC(=O)[C@H](CC(N)=O)NC(=O)[C@H](Cc2ccc3ccccc3c2)NC(=O)[C@H](Cc2ccc(CNC(=O)CN3CCN(CC(=O)O)CCN(CC(=O)O)CCN(CC(=O)O)CC3)cc2)NC(=O)[C@H](CC(C)(C)C)NC(=O)[C@H](Cc2cccc3ccccc23)NC1=O [compound 213, Ac-S-(aMe-Asp)-AllyG(4)*-(1Nal)-(t-Bu-Ala)-[PAF(DOTA)]-(2Nal)-N-AllyG(4)*-(aMe-P)-F-D-CONH2]	0.419	
Ac-(Chg)-S-D-C(3)-(1Nal)-(THPG)-Q-W-N-C(3)-(aMe-P)-F-D-D-Lys(DOTA)-CONH2 [compound 128]		slow kon

Further lines, results first:

Kd [nM]	SPR KD (nM)	Molecule
> 100		CC(=O)N[C@@H](CC1CCNCC1)C(=O)N[C@@H](CO)C(=O)N[C@@H](CC(=O)O)C(=O)N[C@H]1C/C=C\C[C@H](C(=O)N2CCC[C@@]2(C)C(=O)N[C@@H](Cc2ccccc2)C(=O)N[C@@H](CC(=O)O)C(N)=O)NC(=O)[C@H](CC(N)=O)NC(=O)[C@H](Cc2ccc3ccccc3c2)NC(=O)[C@H](Cc2ccc(CNC(=O)CN3CCN(CC(=O)O)CCN(CC(=O)O)CCN(CC(=O)O)CC3)cc2)NC(=O)[C@H](CC(C)(C)C)NC(=O)[C@H](Cc2cccc3ccccc23)NC1=O [compound 211, Ac-[3-(4-piperidinyl)-Ala]-S-D-AllyG(4)-(1Nal)-(t-Bu-Ala)-[PAF(DOTA)]-(2Nal)-N-D-AllyG(4)-(aMe-P)-F-D-CONH2] (Ac-[Ala(piperidin-4-yl)]SD[AllylGly][1Nal][tBuAla][Phe(4-CH2NH2)](DOTA)[2Nal]N[dAllylGly][αMeP]FD-NH2; staple (Z) 4-10)
> 100		CC(=O)N[C@@H](CC1CCNCC1)C(=O)N[C@@H](CO)C(=O)N[C@@H](CC(=O)O)C(=O)N[C@@H]1C/C=C/C[C@H](C(=O)N2CCC[C@@]2(C)C(=O)N[C@@H](Cc2ccccc2)C(=O)N[C@@H](CC(=O)O)C(N)=O)NC(=O)[C@H](CC(N)=O)NC(=O)[C@H](Cc2ccc3ccccc3c2)NC(=O)[C@H](Cc2ccc(CNC(=O)CN3CCN(CC(=O)O)CCN(CC(=O)O)CCN(CC(=O)O)CC3)cc2)NC(=O)[C@H](CC(C)(C)C)NC(=O)[C@H](Cc2cccc3ccccc23)NC1=O [compound 212, Ac-[3-(4-piperidinyl)-Ala]-S-D-D-AllyG(4)-(1Nal)-(t-Bu-Ala)-[PAF(DOTA)]-(2Nal)-N-D-AllyG(4)-(aMe-P)-F-D-CONH2] (Ac-[Ala(piperidin-4-yl)]SD[dAllylGly][1Nal][tBuAla][Phe(4-CH2NH2)](DOTA)[2Nal]N[dAllylGly][αMeP]FD-NH2; staple (E) 4-10)
